The target in assay [1] is Human CTLA4 antibody, which included human κ light chain subgroup 3 (Vκ3) (manufactured by R&D Systems, Inc.). In words: ELISA, antibody immobilised (10 ug/mL), binder at 50 ug/mL, anti-6-His detection, blank subtracted. For orientation: An ELISA detects its analyte on a solid surface through an enzyme-linked reagent.
The target in assay [2] is Humira, which included human κ light chain subgroup 1 (Vκ1) (manufactured by Eisai Co., Ltd.). Nature of the assay: ratio of ELISA A450 on Humira (Vκ1) to A450 on Human PCSK9 antibody (Vκ4).
Assay [3] has the same target. Nature of the assay: ratio of ELISA A450 on Humira (Vκ1) to A450 on Human PDGFR alpha antibody (Vκ3).
Assay [4] deals with Human PCSK9 antibody, which included human κ light chain subgroup 4 (Vκ4) (manufactured by R&D Systems, Inc.). Nature of the assay: ELISA, antibody immobilised, binder at 50 ug/mL, anti-6-His detection (repeats Table 17).
The target in assay [5] is Human PDGFR alpha antibody, which included human κ light chain subgroup 3 (Vκ3) (manufactured by R&D Systems, Inc.). Described as above.
In assay [6] the target is Humira, which included human κ light chain subgroup 1 (Vκ1) (manufactured by Eisai Co., Ltd.). The assay is described as above.
For assay [7] the target is unchanged. Nature of the assay: ratio of ELISA A450 on Humira (Vκ1) to A450 on Human PCSK9 antibody (Vκ4) (repeats Table 17).
Assay [8] addresses Human PCSK9 antibody, which included human κ light chain subgroup 4 (Vκ4) (manufactured by R&D Systems, Inc.). In words: ELISA, antibody immobilised (10 ug/mL), binder at 50 ug/mL, anti-6-His detection, blank subtracted.
Assay [9] addresses Human PDGFR alpha antibody, which included human κ light chain subgroup 3 (Vκ3) (manufactured by R&D Systems, Inc.). Described as above.
In assay [10] the target is Humira, which included human κ light chain subgroup 1 (Vκ1) (manufactured by Eisai Co., Ltd.). Described as above.
For assay [11] the target is unchanged. In words: ratio of ELISA A450 on Humira (Vκ1) to A450 on Human PDGFR alpha antibody (Vκ3) (repeats Table 17).
Assay [12] has as its target Herceptin, which included human κ light chain subgroup 1 (Vκ1) (manufactured by Chugai Pharmaceutical Co., Ltd.). Nature of the assay: ELISA, antibody immobilised (10 ug/mL), binder at 50 ug/mL, anti-6-His detection, blank subtracted.
The target of assay [13] is Human CTLA4 antibody, which included human κ light chain subgroup 3 (Vκ3) (manufactured by R&D Systems, Inc.). Described as above. This is another data set of the same source.
Assay [14] addresses Herceptin, which included human κ light chain subgroup 1 (Vκ1) (manufactured by Chugai Pharmaceutical Co., Ltd.). The assay is described as above. The source holds these as a separate data set.

Where two headings read alike, the source gives them in different places.

“FpL_C3KR_K38E (K(R)38E introduced into FpL_C3KR) (designed binder)” came in with an absorbance at 450 nm (absorbance at 450 nm) in assay [1] of 0.98.
On to “C3 immunoglobulin-binding domain of Protein L derived from Finegoldia magna (FpL_C3), wild-type”, for which the Absorbance ratio (Vκ1/Vκ4) in assay [2] and in [7] was 0.9 throughout. The Absorbance ratio (Vκ1/Vκ3) in assay [3] and in [11] was 1.2 throughout. The absorbance at 450 nm (absorbance at 450 nm) was found to be 0.91 in assay [4]; 0.71 in [5]; 0.82 in assay [6]; 0.91 in [8]; 0.71 in [9]; 0.82 in assay [10].
As for “FpL_C3KR (all lysine residues of FpL_C3 substituted with arginine) (designed binder)”, the absorbance at 450 nm (absorbance at 450 nm) in assay [12] stood at 0.92; in assay [13] it was 0.32; in [8] it was 0.77; in assay [9] it was 0.21; in [14] it was 0.86; in [1], 0.07.

The record behind these values is patent publication EP4703372A1.
